This note sets out measurements from article PMC8596017, “Evolutionary mode for the functional preservation of fast-evolving Drosophila telomere capping proteins” (Open Biology, 2021).

Data set [1] deals with Ver (wild type);Moi (Drosophila melanogaster;Drosophila melanogaster). Kind of data set: pull-down. The following applies: reference; BLI and EMSA: PBS (137 mM NaCl, 2.7 mM KCl, 10 mM Na2HPO4, 1.8 mM KH2PO4) + 0.05% Tween 20, EMSA 15 min at room temperature, 20 fmol ssDNA; pull-down: 4 C …. (A gel shift assay detects complexes by their altered migration in electrophoresis.)
For data set [2] the test system is unchanged. Kind of data set: BLI. The following applies: PBS + 0.05% Tween 20, BLI and EMSA: PBS (137 mM NaCl, 2.7 mM KCl, 10 mM Na2HPO4, 1.8 mM KH2PO4) + 0.05% Tween 20, EMSA 15 min at room temperature, 20 fmol ssDNA, pull-down: 4 C ….
Data set [3] addresses M1-Ver (Ver with the Group 1 uncharacterized helices deleted), Flag-tagged (D. melanogaster) (UniProt Q9VTZ2). Kind of data set: co-IP; Flag immune-affinity purification: heparin-sepharose fractions loaded on anti-FLAG M2 affinity matrix, washed with buffer I (25 mM Tris HCl pH 7.5, 100 mM NaCl, 1 mM CaCl2, 1 mM MgCl2) or PBS, eluted with 3× Flag peptide.
The target of data set [4] is M3-Ver (Ver with the putative DNA binding surface, Group 3, partially deleted), Flag-tagged (D. melanogaster) (UniProt Q9VTZ2). The description is as above.
In data set [5] the target is T1, Verrocchio (Ver), wild type, Flag-tagged (D. melanogaster, UniProt Q9VTZ2 1-214).
T1 construct: Verrocchio (Ver), Terminin subunit of D. melanogaster; also called wild-type Ver; source: Arctic express cells (DE3), co-expressed with Moi-HA from a bicistronic pET vector; cell lysate, heparin-sepharose fractions, anti-FLAG M2 eluate; not shown: Flag, N-terminal, kept
T1 sequence (looked up): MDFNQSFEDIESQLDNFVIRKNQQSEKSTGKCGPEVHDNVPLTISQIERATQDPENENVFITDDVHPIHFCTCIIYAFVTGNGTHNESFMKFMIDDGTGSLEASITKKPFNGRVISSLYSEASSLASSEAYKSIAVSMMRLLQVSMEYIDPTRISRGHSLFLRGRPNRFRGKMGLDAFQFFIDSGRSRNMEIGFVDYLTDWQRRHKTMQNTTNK
The data set is described as above. The following applies: partners not purified.

By Kd is commonly meant the free concentration of one partner at which half of the binding sites on the other are occupied at equilibrium, for simple one-to-one binding. For 80 nt ssDNA, in data set [1], the binding signal (fraction of Moi eluted from ssDNA) came to 1. Moreover, the Kd in data set [2] (Kd1, heterogeneous ligand (2:1) model) is 129 nM; in data set [2] (Kd2, heterogeneous ligand (2:1) model), 1570 nM.

B1: Modigliani (Moi), HA-tagged at the C-terminus (natural protein, D. melanogaster, UniProt B7Z0L8 1-178, looked up)
chain: MSLVPEASTSRAPKYCYFFKTLLVEELELETSYHNLHYGQCALIGRLAFKANQYRLENVRVKCLPKKYSLGEGTVSLLILGLTHDKVVENRVSTGRYCIVRGEVVLHNVQHPKGAKLTAGGVYDKINSLSNDPLAQKQYLSALLATYRPAIDLWYIQVIDRAEDLLTRRLEMRSLIEK
notes: DTL/Modigliani (Moi), Terminin subunit of D. melanogaster; also called DTL; source: Arctic express cells (DE3), co-expressed with Ver from a bicistronic pET vector; cell lysate, heparin-sepharose fractions, anti-FLAG M2 eluate; not shown: HA, C-terminal, kept
The term stoichiometry N denotes the number of molecules, sites or subunits per partner or assembly. Regarding B1, the stoichiometry N in data set [3] was 1; in data set [4], 1; in data set [5] it was ~1.
